Columns and labels:
[1] = biological target: T1, recombinant cMet/HGFR with c-terminal His-tag, Cy5-labeled (UniProt P08581 25-932, limits assumed, Cy5 label (reacted with Cy5 Mono NHS Ester; sites not stated)); test: competitive TR-FRET (Eu-amivantamab/Cy5-c-MET), EC50 ratio vs Reference Material; Ex. 3 acetate formulation, 6 months at 25 C then shaking up to 72 h
T1 construct: Commercial protein; also called Cy5-c-MET; Cy5-labeled c-MET antigen; not shown: C-terminal His-tag
From the text: (§1) In this procedure, varying concentrations of unlabeled bispecific EGFR-cMet antibody sample compete with donor fluorophore (Europium (Eu) chelate) labeled bispecific EGFR-cMet antibody for binding to an acceptor fluorophore (Cy5)-labeled c-MET antigen. Excitation of the donor fluorophore results in a transfer of energy to the bound acceptor fluorophore (FRET process). The resultant FRET is detected by emission of light at 665 nm using a microplate reader capable of measuring time-resolved fluorescence. Sample dose response curves are compared to the Reference Material (RM).
(§2) c-MET Binding Materials and Methods. Certified commercial cMet, a recombinant cMet/HGFR with c-terminal His-tag is reacted with certified commercial Cy5 Mono NHS Ester to produce Cy5-labeled c-MET. Validated bispecific EGFR-cMet antibody is reacted with certified commercial Europium (Eu) chelate to produce Eu labeled bispecific EGFR-cMet antibody. […] Fluorescence is then measured by spectrophotometry at 665 nm, plotted against antibody concentration and analyzed by a four-parameter logistic model. The antibody concentration required to obtain half of the maximum fluorescence response (EC50) is determined for RM, assay control and samples. The potencies of assay control and samples are calculated based on the ratio of the sample (or control) and RM EC50 values and reported as a percentage activity relative to the RM.

[2] = biological target: T2, recombinant human EGFR/ErbB1/HER1 with C-terminal His tag, Cy5-labeled (human, UniProt P00533 25-645, Cy5 label (reacted with Cy5 Mono NHS Ester; sites not stated)); test: competitive TR-FRET (Eu-amivantamab/Cy5-EGFR), EC50 ratio vs Reference Material; Ex. 2 Formulation 2 (50 mM histidine), T0, 25 C table
T2 construct: Commercial protein; also called Cy5-EGFR; Cy5-labeled EGFR antigen; not shown: C-terminal His tag
From the text: as §1, with “EGFR” for “c-MET”, “RM.” for “Reference Material (RM).”
as §2, with “EGFR” for “c-MET”, “EGFR,” for “cMet,”, “human EGFR/ErbB1/HER1” for “cMet/HGFR”, “C-terminal His tag” for “c-terminal His-tag”, “EGFR.” for “c-MET.”, “Eu-labeled” for “Eu labeled”

[3] = biological target: T2, recombinant human EGFR/ErbB1/HER1 with …; test: competitive TR-FRET (Eu-amivantamab/Cy5-EGFR), EC50 ratio vs Reference Material; Ex. 2 Formulation 2 (50 mM histidine), 3 months at 5 C
From the text: as §1, with “EGFR” for “c-MET”, “RM.” for “Reference Material (RM).”
as §2, with “EGFR” for “c-MET”, “EGFR,” for “cMet,”, “human EGFR/ErbB1/HER1” for “cMet/HGFR”, “C-terminal His tag” for “c-terminal His-tag”, “EGFR.” for “c-MET.”, “Eu-labeled” for “Eu labeled”

[4] = biological target: T2, recombinant human EGFR/ErbB1/HER1 with …; test: competitive TR-FRET (Eu-amivantamab/Cy5-EGFR), EC50 ratio vs Reference Material; Ex. 12 drug product with rHuPH20, 0 months, 40 C table
From the text: as §1, with “EGFR” for “c-MET”, “RM.” for “Reference Material (RM).”
as §2, with “EGFR” for “c-MET”, “EGFR,” for “cMet,”, “human EGFR/ErbB1/HER1” for “cMet/HGFR”, “C-terminal His tag” for “c-terminal His-tag”, “EGFR.” for “c-MET.”, “Eu-labeled” for “Eu labeled”

[5] = biological target: T2, recombinant human EGFR/ErbB1/HER1 with …; test: competitive TR-FRET (Eu-amivantamab/Cy5-EGFR), EC50 ratio vs Reference Material; Ex. 12 drug product with rHuPH20, 3 months at 40 C
From the text: as §1, with “EGFR” for “c-MET”, “RM.” for “Reference Material (RM).”
as §2, with “EGFR” for “c-MET”, “EGFR,” for “cMet,”, “human EGFR/ErbB1/HER1” for “cMet/HGFR”, “C-terminal His tag” for “c-terminal His-tag”, “EGFR.” for “c-MET.”, “Eu-labeled” for “Eu labeled”

[6] = biological target: T1, recombinant cMet/HGFR with c-terminal …; test: competitive TR-FRET (Eu-amivantamab/Cy5-c-MET), EC50 ratio vs Reference Material; Ex. 2 Formulation 3 (acetate), 3 months at 25 C
From the text: as §1, §2

[7] = biological target: T2, recombinant human EGFR/ErbB1/HER1 with …; test: competitive TR-FRET (Eu-amivantamab/Cy5-EGFR), EC50 ratio vs Reference Material; Ex. 12 drug product with rHuPH20, 3 months at 5 C
From the text: as §1, with “EGFR” for “c-MET”, “RM.” for “Reference Material (RM).”
as §2, with “EGFR” for “c-MET”, “EGFR,” for “cMet,”, “human EGFR/ErbB1/HER1” for “cMet/HGFR”, “C-terminal His tag” for “c-terminal His-tag”, “EGFR.” for “c-MET.”, “Eu-labeled” for “Eu labeled”

[8] = biological target: T2, recombinant human EGFR/ErbB1/HER1 with …; test: competitive TR-FRET (Eu-amivantamab/Cy5-EGFR), EC50 ratio vs Reference Material; Ex. 11 drug product, 3 months at 5 C
From the text: as §1, with “EGFR” for “c-MET”, “RM.” for “Reference Material (RM).”
as §2, with “EGFR” for “c-MET”, “EGFR,” for “cMet,”, “human EGFR/ErbB1/HER1” for “cMet/HGFR”, “C-terminal His tag” for “c-terminal His-tag”, “EGFR.” for “c-MET.”, “Eu-labeled” for “Eu labeled”

- cMET Binding % activity relative to RM [1]: 97%
- EGFR Binding % activity relative to RM [2]: 103%
- EGFR Binding % activity relative to RM [3]: 96%
- EGFR Binding activity relative to Reference Material (%) [4]: 92%
- EGFR Binding activity relative to Reference Material (%) [5]: 9%
- cMET Binding % activity relative to RM [6]: 105%
- EGFR Binding activity relative to Reference Material (%) [7]: 82%
- EGFR Binding activity relative to Reference Material (%) [8]: 74%
B1: amivantamab (bispecific antibody, human IgG1, kappa)
heavy 1: not shown
light 1: not shown
heavy 2: not shown
light 2: DIQMTQSPSSVSASVGDRVTITCRASQGISNWLAWFQHKPGKAPKLLIYAASSLLSGVPSRFSGSGSGTDFTLTISSLQPEDFATYYCQQANSFPITFGQGTRLEIKRTVAAPSVFIFPPSDEQLKSGTASVVCLLNNFYPREAKVQWKVDNALQSGNSQESVTEQDSKDSTYSLSSTLTLSKADYEKHKVYACEVTHQGLSSPVTKSFNRGEC
notes: The samples tested were high concentration (160 mg/mL) formulations, fresh or stored or stressed; also called JNJ-61186372; bispecific EGFR-cMet antibody

Reference: patent US20240034813A1 (Janssen / Centocor, published 2024)
